Assay results reported in US20150203577A1 (Chugai, published 2015).

What was measured:
[1] = target: T1, mouse FcγRII extracellular domain, C-terminally His-tagged (mouse, UniProt P08101 30-210); test: SPR Biacore T200
T1 construct: the whole entry is named; also called mFcγRII; mFcgRII
T1 sequence: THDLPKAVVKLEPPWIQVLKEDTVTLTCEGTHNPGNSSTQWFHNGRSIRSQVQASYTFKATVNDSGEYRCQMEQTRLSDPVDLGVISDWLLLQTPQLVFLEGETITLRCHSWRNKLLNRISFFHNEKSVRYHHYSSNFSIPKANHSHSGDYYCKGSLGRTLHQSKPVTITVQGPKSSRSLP

[2] = target: T2, mouse FcγRIII extracellular domain, C-terminally His-tagged (mouse, UniProt P08508 31-215); test: SPR Biacore T200, KD ratio
T2 construct: the whole entry is named; also called mFcγRIII; mFcgRIII
T2 chain: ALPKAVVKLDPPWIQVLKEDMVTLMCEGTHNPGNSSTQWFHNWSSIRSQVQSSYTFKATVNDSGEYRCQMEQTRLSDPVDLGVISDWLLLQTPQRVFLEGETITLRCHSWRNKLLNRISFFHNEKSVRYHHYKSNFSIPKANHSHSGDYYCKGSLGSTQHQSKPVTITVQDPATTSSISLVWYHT

B1: H237-MB656/MRAL-k0 (antibody, mouse IgG1, kappa)
heavy: QVQLQESGPGLVKPSETLSLTCAVSGHSISHDHAWSWVRQPPGEGLEWIGFISYSGITNYNPSLQGRVTISRDNSKNTLYLQMNSLRAEDTAVYYCARSLARTTAMDYWGEGTLVTVSSAKTTPPSVYPLAPGSAAQTNSMVTLGCLVKGYFPEPVTVTWNSGSLSSGVHTFPAVLQSDLYTLSSSVTVPSSTWPSETVTCNVAHPASSTKVDKKIVPRDCGCKPCICIPAEVEFVFIFPPKPKDVLTITLTPKVTCVVVDISKDDPEVQFSWFVDDVEVHTAQTQPREEQFNSTFRSVSELPIMHQDWLNGKEFKCRVNSAAFPAPIEKTISKTKGRPKAPQVYTIPPPKEQMAKDKVSLTCMITDFFPEDITVEWQWNGQPAENYKNTQPIMDTDGSYFVYSKLNVQKSNWEAGNTFTCSVLHEGLHNHHTEKSLSHSPGK
light: not shown
notes: copies: 2 + 2
- binding result [1]: no binding
- relative mFcγRIII-binding activity (mIgG1 = 1) [2]: 0.02 fold
